Assay results taken from patent US6955900B1, “Methods for producing polypeptide binding sites, monoclonal antibodies and compositions thereof” (The Scripps Research Institute, priority 1993, dated 2005).

Assays:
αvβ3 = target: T1, αvβ3 (Homo sapiens, UniProt P05106+P06756); assay: dissociation of 125I-ligand from purified αvβ3; settings: two hour dissociation after four hours binding
T1 construct: human placentas were obtained, cut into small pieces and extracted; from tissue
Protocol: The binding of Fab 9 is shown as an example in this analysis, but its binding behavior was essentially identical to that of the MTF antibodies. The ability of ^125I-Fab 9 to dissociate from purified αvβ3 was compared to that of ^125I-vitronectin in purified ligand-receptor binding assays performed as described in Example 5B. Both ligands were incubated with purified αvβ3 for four hours. Then buffer containing radioligands was replaced with binding buffer lacking ligand to allow dissociation. An effort was also made to promote dissociation by adding 10 uM GRGDSP (SEQ ID NO 66) after the binding step. […] Following a two hour incubation to allow dissociation, buffer was removed and the amount of ^125I-ligand remaining bound to integrin was measured. The remaining bound ligand was compared to the amount of ligand bound at the beginning of the dissociation step.

M21 melanoma cells = assay: adhesion of M21 melanoma cells to immobilized Fab or vitronectin; type: cell-based, human
Protocol: When Fab 9 that contained an RGD binding site was used in cell adhesion assays, it blocked the melanoma cell adhesion to immobilized vitronectin with an IC50 of 4 nM in contrast to the framework antibody pMT12 that had no effect on cell adhesion. […] This finding provides further evidence that Fab 9 is specific to beta 3 integrins. In similar assays, Fab 9 was compared to vitronectin in the ability to support cellular adhesion. Both proteins supported the binding of cells saturating at approximately 5 ug/ml of Fab or vitronectin.
This assay, performed as described in Example 4, was performed with whole cell adhesion assays using M21 melanoma cells because they adhere to RGD-ligands primarily via αvβ3. M21 cells were allowed to adhere to a concentration range from 1 to 10 ug/ml of immobilized Fab 9 and MTF-10.

T1 sequence (P06756 31-889 limits assumed): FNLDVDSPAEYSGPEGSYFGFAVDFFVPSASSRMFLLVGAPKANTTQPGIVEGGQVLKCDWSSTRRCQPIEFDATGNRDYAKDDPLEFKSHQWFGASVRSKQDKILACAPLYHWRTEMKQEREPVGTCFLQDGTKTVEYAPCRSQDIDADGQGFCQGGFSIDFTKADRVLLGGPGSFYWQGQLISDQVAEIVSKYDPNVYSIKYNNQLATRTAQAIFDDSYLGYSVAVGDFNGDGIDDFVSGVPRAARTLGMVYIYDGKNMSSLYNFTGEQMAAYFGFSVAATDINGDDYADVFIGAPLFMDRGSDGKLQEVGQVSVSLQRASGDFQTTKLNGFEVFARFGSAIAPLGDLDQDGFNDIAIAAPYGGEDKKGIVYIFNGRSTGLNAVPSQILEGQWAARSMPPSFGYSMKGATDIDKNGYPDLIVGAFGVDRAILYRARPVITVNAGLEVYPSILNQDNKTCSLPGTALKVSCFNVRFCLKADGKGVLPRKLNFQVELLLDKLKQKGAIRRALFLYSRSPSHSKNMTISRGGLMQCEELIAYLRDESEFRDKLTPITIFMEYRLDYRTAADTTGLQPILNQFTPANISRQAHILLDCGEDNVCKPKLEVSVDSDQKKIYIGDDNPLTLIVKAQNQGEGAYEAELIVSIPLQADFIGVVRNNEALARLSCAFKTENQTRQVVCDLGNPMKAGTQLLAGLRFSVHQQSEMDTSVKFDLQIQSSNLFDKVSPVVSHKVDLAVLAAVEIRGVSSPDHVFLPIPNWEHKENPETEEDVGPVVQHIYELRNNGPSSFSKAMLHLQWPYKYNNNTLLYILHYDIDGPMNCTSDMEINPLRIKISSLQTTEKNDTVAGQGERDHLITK
T1 sequence (P06756 891-1048 partner limits assumed): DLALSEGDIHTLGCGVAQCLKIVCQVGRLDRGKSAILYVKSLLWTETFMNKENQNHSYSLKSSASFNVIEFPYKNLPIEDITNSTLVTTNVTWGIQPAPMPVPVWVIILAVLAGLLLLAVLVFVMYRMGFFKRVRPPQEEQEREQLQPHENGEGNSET
T1 sequence (P05106 27-788): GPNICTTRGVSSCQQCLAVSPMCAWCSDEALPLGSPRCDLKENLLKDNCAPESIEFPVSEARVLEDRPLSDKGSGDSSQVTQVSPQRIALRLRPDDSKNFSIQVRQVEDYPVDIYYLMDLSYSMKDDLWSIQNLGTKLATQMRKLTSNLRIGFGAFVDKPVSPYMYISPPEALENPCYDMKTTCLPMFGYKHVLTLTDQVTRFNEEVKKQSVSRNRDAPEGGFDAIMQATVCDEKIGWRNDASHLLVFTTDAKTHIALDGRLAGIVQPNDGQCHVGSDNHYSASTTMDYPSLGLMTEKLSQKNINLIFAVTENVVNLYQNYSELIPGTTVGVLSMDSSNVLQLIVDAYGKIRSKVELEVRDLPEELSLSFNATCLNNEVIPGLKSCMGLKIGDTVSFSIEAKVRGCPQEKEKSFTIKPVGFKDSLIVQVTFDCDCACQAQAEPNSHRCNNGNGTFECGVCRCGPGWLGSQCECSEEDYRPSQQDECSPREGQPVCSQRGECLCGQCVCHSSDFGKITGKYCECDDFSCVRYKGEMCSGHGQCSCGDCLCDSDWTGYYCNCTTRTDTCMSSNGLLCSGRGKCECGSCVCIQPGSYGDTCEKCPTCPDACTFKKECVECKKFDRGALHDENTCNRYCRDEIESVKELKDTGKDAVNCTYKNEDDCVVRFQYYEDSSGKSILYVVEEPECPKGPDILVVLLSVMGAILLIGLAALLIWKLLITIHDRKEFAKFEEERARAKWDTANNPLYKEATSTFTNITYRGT

bound ligand that remained associated with αvβ3 (αvβ3): greater than 65%
Substance: vitronectin: natural high affinity ligand of αvβ3
coating concentration at which supported cell binding saturates (M21 melanoma cells): approximately 5 ug/ml
